B1: hCDIFA-12 (antibody, V domains shown)
VH: QVQLVQSGAEVKKPGASVKVSCKASGYTFSDSYMHWVRQAPGQGLEWMGRINPNSGGTNYAQKFQGRVTMTRDTSIKTVYMELSRLRSDDGAIYYCARGMGRTTTGLFDLWGQGTLVTVSS
VL: DIVMTQSPATLSLSPGERATLSCKANESVGSYLVWYQQKFGQAPRLLIYDASNRATGIPARFSGSGSGTDFTLTISSLEPEDFAVYYCQQRSNWPPTFGGGTKVDIKR
B2: hCDIFA-13 (antibody, V domains shown)
VH: QVQLVQSGAEVKKPGASVTVSCRTSGYTFTNDYVHWVRQAPGQGLEWVGLINPSGGNTVYAQSFQGRVTMTRDTSTSTVYMELSSLRSEDTAVYYCARVVHDYGKFDPWGQGTPVTVSS
VL: SYELTQPASVSGSPRQSITISCTGTSSDVGNYNLVSWYQQYPGKAPRLIIFEVRQRPSGVSNRFSGSKSGNTASLTISGLQAADEADYYCCSYAGRSIWVFGGGTKLTVLG
B3: hCDIFA-14 (antibody, V domains shown)
VH: EVQLVQSGAEVKKPGSSVKVSCKASGGTFRSYAISWVRQAPGQGLEWMGGFIPIPGIRNYAQKFQGRLTISADESTSTGYMELSSLTSEDTAVYYCARGLGRVSHYFYYMDVWGKGTTVTVSS
VL: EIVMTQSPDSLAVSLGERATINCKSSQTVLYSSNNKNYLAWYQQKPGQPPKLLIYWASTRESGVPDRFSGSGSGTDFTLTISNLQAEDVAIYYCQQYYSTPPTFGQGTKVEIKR
B4: hCDIFA-16 (antibody, V domains shown)
VH: QVQLQESGPGLVKPSETLSLTCTVSGDSISDYYWSWIRQPPGRGLEWIGYIYYSGSTNYNPSLKSRLTISVDTSKNQFSLNLSSVTAADTAVYYCARSMGHYDFWNTYFPCFDPWGQGTLVTVSS
VL: EIVMTQSPGTLSLSPGERATLSCRASQSVSSGYLAWYQQKPGQAPRLLIYGASSRATGIPDRFRGSGSGTDFTLTISRLEPEDFAVYYCQQYGSSPLTFGGGTKLEIKR
B5: hCDIFA-18 (antibody, V domains shown)
VH: QVQLVQSGAEVKKPGASVKVSCKASGYTFTSYAMHWVRQAPGQRLEWMGWINAGNGNTKYSQEFQGRVTITRDTSASTAYMELSSLRSEDMAVYYCARAHLPGYCSSTSCYIMYVWGKGTTVTVSS
VL: not shown
B6: hCDIFA-20 (antibody, V domains shown)
VH: EVQLVQSGAEVRIPGASVKVSCKASGFTFNDYYIHWVRQAPGQGLEWMGWINAHNGVTSYAQNFQDRVTMTRDTSITTAYMDLSRLRSDDTAVYYCARDCSTSSCFDHWGQGSLVTVSS
VL: SYELTQPPSLSVAPGKTAKITCGGNNIGSKGVHWYQQRPGQAPVLVIYYNADRPSGIPERFSGSNSGNTATLTISRVEAGDEADYFCQVWDGDSAHRVFGGGTKLTVLG
B7: hCDIFA-22 (antibody, V domains shown)
VH: QVQLVQSGGGLVQPGGSLRLSCSASGFTFSSYAMHWVRQAPGKGLEYVSAISSNGGSTYYADSVKGRFTISRDNSKNTLYLQMSSLRAEDTAVYYCVRAAAGNWFDPWGQGTLVTVSS
VL: AIRMTQSPSSVSASVGDRVTITCRASQGISSWLAWYQQKPGKAPKLLIYAASSLQSGVPSRFSGSGSGTDFTLTISSLQPEDFATYYCQQANSFPLTFGGGTKVDIKR
B8: hCDIFA-23 (antibody, V domains shown)
VH: QVQLVQSGGGVVQPGRSLRLSCAASGFTFSQYSIHWVRQAPGKGLEWVAVMSYDGRNKYYADSVKGRFTISGDNSRNTLYVQMNSLRAEDTAIYYCARDLIKAAMVPAFDIWGQGTMVTVSS
VL: TALTQPRSVSGSPGQSVTISCTGTNSDVADYNYVSWYQHHPGKAPKLMIYDVTKRPSGVPDRFSGSKSGNTASLTISGLQAEDEADYYCCSYAARYTFGGGTKLTVLG
B9: hCDIFA-2 (antibody, V domains shown)
VH: QVQLVESGGGLVQPGGSLRLSCAASGFTFSSYAMSWVRQAPGKGPEWVSNIIGSGGSTYFTDSVKGRFTISRDNSKNTVYLQMNSLRAEDTAVYYCAKEGCRGYDSGNYFAPKMFCLWGQGTLVTVSS
VL: NFMLTQPASVSGSPGQSITISCTGTSSDIGAYNYVSWYQQHPGTAPKLMIYEVSHRPSGVSNRFSGSKSGDTASLTISGLQAEDEADYYCSSYTTSITYVFGTGTKLTVLG
B10: hCDIFA-28 (antibody, V domains shown)
VH: QVQLVQSGAQVKKPGSSVKVSCKASGYAFISYGITWVRQAPGQGLEWMGWISAYNGDTNYAQKFQGRVTMTTDTSTNTAYMELRSLRSDDTAVYYCARALTRVAVALPHPYWGQGTLVTVSS
VL: not shown
B11: hCDIFA-30 (antibody, V domains shown)
VH: EVQLVESGAEVKRPGASVKVSCRTSAYAFTNYFMHWVRQAPGQGLEWVAVINLSGGNTNYAQSFQGRVNMTRDTSTSTVYMELSSLRSEDTAVYFCAIGGIWFGEYPNWFDPWGQGTLVTVSS
VL: NFMLTQPPSVSAAPGRKVTVSCSGSSSNIGNNYVSWYQQFPGTAPKLLIYDNNKRHSGIPARFSGSKSGTSATLGITGLQTGDEADYYCATWDSSLKYVVFGGGTKLTVLG
B12: hCDIFA-34 (antibody, V domains shown)
VH: QVQLVESGGDLIQPGESLRLSCVASGFTVGSHYMTWVRQAPGKGLEWVSTIYSGGTTKYADSVKGRFTISRDNSKNTLFLQMNSLRTEDTAVYFCARGSAFSSSWWLVDFWGQGTLVTVSS
VL: SYELTQPPSVSVAPGKTARITCEDNYVGGNNVHWYQQKPGQAPVLVVSDDNARPSGIPERVSGSKSGNTATLIINRVEVGDEADFYCQVWDSSRDRVLFGGGTKLTVLG
B13: hCDIFA-36 (antibody, V domains shown)
VH: QVQLVQSGGGLVQPGRSLRLSCAASGFAFDDYALHWVRQVPGKGLEWVSGISWNSDSIAYADSVKGRFTISRDNAKNSLYLQMNGLRAEDTALYYCAKDRTIASAGIPDEFQHWGQGTLVTVSS
VL: DIVMTQSPATLSVSPGERATLSCRASQSVSYKVAWYQQKPGQAPRLLIYGASTRDTGIPARFSGSGSGTDFTLTISSLQSEDSAVYYCQQYSNWPTTFGQGTKVEIKR
B14: hCDIFA-38 (antibody, V domains shown)
VH: QVQLVESGPALVKPTQTLTLTCTFSGFSLSSIGMCVSWIRQPPGKALEWLARIDWDDSKYYSPSLQARLAISKDTSKNQVVLTMTNVDPMDAGTYYCARTSATLTGPSRVFDYWGQGSLVTVSS
VL: DVVMTQSPATLSVSPGERATLSCRASQSVRFNLAWYQQKPGQAPRLLISGASTRATGIPARFSGSGSGTEFTLTISSLQSEDFAVYYCQQYNNWPPLTFGGGTKVEIKR
B15: hCDIFA-39 (antibody, V domains shown)
VH: QVQLQESGPGLVKPSETLSLTCTLSGGSISSDNYYWGWVRQPPGKGLEWIGSIYYSGSTYYNPSLKSRVFISVDMSKNQFSLKLSSVTAADTAVYYCARHTQGLGILRYFDWWTRPFDYWGQGTLVTVSS
VL: DIQMTQSPSSLSASVGDRVTITCRASQNINTYLSWYRQKPGKAPELLIYAASNLQSGVPSRFSGSGSGTDFTLTIHSLQPEDFATYYCQQSYTTLTFGGGTKVEIKR
B16: hCDIFA-3 (antibody, V domains shown)
VH: EVQLVESGGGVVQPGRSLRLSCAASGFTFSSYAMHWVRQAPGKGLEWVAVISKDGDNKYYTDPLKGRFTISRDNSKNTLYLQMISLRGEDTAVYYCARDLNIWSGYYLRTINYYMDVWGKGTTVTVSS
VL: DIVMTQSPSFLSASVGDRVTITCRASQGIRNDLGWYQQKPGKAPKLLIYAASTLQSGVPSRFSGSGSGTEFTLTISSLQPEDFATYYCQQPGSHPPFGGGAKLEIKR
B17: hCDIFA-41 (antibody, V domains shown)
VH: QVQLQESGPGLVKPSQTLSLTCTVSGDSISSNQYYWTWIRQPAGKGLEWIGQIESAYFTNYNPSLKGRVTISGDASKNVLSLTLTSVTAADTALYWCAREAGGGLGYCTGGRCQFSGYYYYGLDVWGQGTTVTVSS
VL: QSALTQPPSVSAAPGQTVTISCSGSHSNIGNNYVSWYQQLPGTAPRRLIYDTDKRPSGIPDRFSGSKSGTSATLVITGLRAGDEADYYCGTWDGSLSAGVFGGGTKLTVLG
B18: hCDIFA-26 (antibody, V domains shown)
VH: EVQLLESGAEVKKPGESLRISCNCSGYSFTSYWIGWVRQMPGEGLEWMGLIQPGGDSYPRYSPSFQGQVTISADKSISTAYLQWRSLKASDTAMYYCARRGFDHWGQGTLVTVSS
VL: NFMLTQPPSASGAPGQRVTISCSGSSSNIGSNTVNWYQQLPGTAPKLLIYSNIQRPSGVPDRFSGSKSGTSASLAISGLQSDDEADYYCSAWDDSLNGYVFGTGTKVTVLG
B19: hCDIFA-33 (antibody, V domains shown)
VH: QVQLVQSGGGLVQPGGSLRLSCVASGFTFSSYAMTWVRQAPGMGLEWVSTISLSGSTIYYADSVKGRFTISRDNPKNTLYLQMNSLRAEDTAVYYCAEGQGAFDFWGQGTMVTVSS
VL: NFMLTQPPSASGTPGQRVTISCSGSTSNIGGNTVNWYQQLPGTAPKLLIYSNIQRPSGVPDRFSGSKSGTSASLAIRGLRSEDEADYYCSTWDDSRKGVVFGGGTKLTVLG
B20: hCDIFA-48 (antibody, V domains shown)
VH: QVQLVQSGAEVKKPGASVKVSCKASGYTFTTYAMHWVRQAPGHRLEWMGWINPVNGNSKHSQNFQGRVTITRDTSASTVYMELSSLRSEDTAVYYCARDTSSGVILANNFDYWGQGTLVTVSS
VL: DIVMTQSPATLSLSPGERATLSCRASQSVDSYLTWYQQKPGQAPRLLIYDSSNRATGIPARFSGSGSGTDFTLTISSLEPEDFAVYYCHQRSNWPNTFGQGTKVEIKR
B21: hCDIFA-29 (antibody, V domains shown)
VH: EVQLLESGAEVKKPGASIRVSCKASGHSFTDSFTDYYFHWVRQAPGQGLEWMGMINPSVGSTNYAQKFQGRVTLTRDTSTHTVYMELSSLRSEDTAVYFCARDPWFCSRGTSCYYFGLWGQGTLVTVSS
VL: DIQLTQSPSSLSASVGDSVTITCRASQSISTYLNWYQQKPGKAPKLLIYDASSLLSGVPSRFSGGGSGTDFTLTISSLQPEDFATYYCQQSDISPPVFGRGTKVEIKR

Columns and labels:
C. difficile toxin A = C. difficile toxin A (Clostridium difficile, UniProt P16154 1-2710); assay: cell-based or functional assay
[1] = target: T1, genetically modified and chemically inactivated C. difficile toxoid A (Clostridium difficile, UniProt P16154 2-2710); assay: ITC
T1 construct: also called TxdA; the toxoid

| Binder | EC50 TcdA [RLU], toxin neutralization assay (TNA) on IMR90 cells (C. difficile toxin A) | other results |
| --- | --- | --- |
| B1 | ~115 RLU |  |
| B2 | 26300 RLU |  |
| B3 | 19800 RLU |  |
| B4 | 298 RLU |  |
| B5 | 1330 RLU |  |
| B6 | 3200 RLU |  |
| B7 | ~16 RLU |  |
| B8 | 136 RLU |  |
| B9 | ~38 RLU |  |
| B10 | 25800 RLU |  |
| B11 | 1480 RLU |  |
| B12 | 247 RLU |  |
| B13 | 426000 RLU |  |
| B14 | 10500 RLU |  |
| B15 | 400 RLU |  |
| B16 | 199000 RLU |  |
| B17 | 673 RLU |  |
| B18 |  | DH [1]: -9.1 kcal/mol; Kd [1]: 8 nM; Stoichiometry [1]: 1.98 |
| B19 |  | DH [1]: -3 kcal/mol; Kd [1]: 31 nM; Stoichiometry [1]: 0.83 |
| B20 |  | DH [1]: -7.2 kcal/mol; Kd [1]: 87 nM; Stoichiometry [1]: 0.77 |
| B21 |  | DH [1]: -15.6 kcal/mol; Kd [1]: 74 nM; Stoichiometry [1]: 9.2 |
